According to publication PMC12151379, “The liprin-α/RIM complex regulates the dynamic assembly of presynaptic active zones via liquid–liquid phase separation” (PLOS Biology, 2025):

Molecular target: the molecule itself
Experiment: SEC-MALS; 100 μl sample (individual proteins or mixture, up to 500 μM) on Superdex 200 Increase 10/300 GL in TBS

B1: liprin-α2_CC2 (residues 259–542) (domain or fragment, human, UniProt O75334 259-542, looked up)
chain: GSIDSTDETSQIVELQELLEKQNYEMAQMKERLAALSSRVGEVEQEAETARKDLIKTEEMNTKYQRDIREAMAQKEDMEERITTLEKRYLSAQRESTSIHDMNDKLENELANKEAILRQMEEKNRQLQERLELAEQKLQQTMRKAETLPEVEAELAQRIAALTKAEERHGNIEERMRHLEGQLEEKNQELQRARQREKMNEEHNKRLSDTVDRLLTESNERLQLHLKERMAALEEKNVLIQESETFRKNLEESLHDKERLAEEIEKLRSELDQLKMRTGSLIEP
notes: liprin-α2, human, GenBank AF034799.1, CC2 region, residues 259–542; Dimeric by SEC-MALS at 500 μM; source: E. coli BL21(DE3), purified (Ni-NTA, SEC)
- stoichiometry N: 2
